Biological target: HA-ezrin fused protein (human (cDNA from HEK293T cells)) (UniProt P15311)
UniProt P15311, sequence (P15311 whole entry, the tested form may be a part): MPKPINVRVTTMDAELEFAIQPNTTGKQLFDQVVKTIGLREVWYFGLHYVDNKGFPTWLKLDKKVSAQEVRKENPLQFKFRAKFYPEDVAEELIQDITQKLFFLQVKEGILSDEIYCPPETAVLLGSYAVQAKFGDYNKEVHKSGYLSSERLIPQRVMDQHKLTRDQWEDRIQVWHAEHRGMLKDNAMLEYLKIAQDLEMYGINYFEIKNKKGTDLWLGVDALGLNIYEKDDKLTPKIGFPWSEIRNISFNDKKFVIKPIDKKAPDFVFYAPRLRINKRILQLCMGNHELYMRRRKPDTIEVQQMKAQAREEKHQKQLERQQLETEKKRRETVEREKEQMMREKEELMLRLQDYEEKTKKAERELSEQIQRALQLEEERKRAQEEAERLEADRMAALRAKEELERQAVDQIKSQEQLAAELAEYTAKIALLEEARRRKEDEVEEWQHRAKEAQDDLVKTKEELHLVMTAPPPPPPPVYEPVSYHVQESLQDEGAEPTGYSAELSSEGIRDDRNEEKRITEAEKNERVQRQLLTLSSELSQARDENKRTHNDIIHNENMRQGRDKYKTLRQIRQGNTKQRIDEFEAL

## GFP-BifA fused protein (natural protein)
  ratio of p-ezrin/total-ezrin in dHL60 cells under BifA treatment (10 μg/mL purified BifA), phos-tag gel and immunoblot, 0 to 2 h (ratio p-ezrin/total-ezrin): 1

Source: publication PMC9138245
